Source: article PMC314469, “Protein Interaction Networks by Proteome Peptide Scanning” (PLoS Biology, 2004)

T1: Abp1 SH3 (ABP1_YEAST), P15891
T1 chain: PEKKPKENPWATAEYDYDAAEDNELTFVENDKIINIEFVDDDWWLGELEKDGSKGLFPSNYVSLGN


Molecular target: T1, Abp1 SH3 (ABP1_YEAST), P15891
Experiment: SPOT array

normalised SPOT signal, Boehringer light units (BLU); mean over the file's lines of this peptide | Binder
43 | QRKSLRRPTLSKP [YOR264W 128-140]
62.9 | QWGVIIINKMPLKP [YDR434W 319-332]
55 | QIIETPYPPTQKP [YJL208C 31-43]
333 | QRGQQGYPRQPQRP [YDR171W 23-36]
89.6 | QVADVQWSPHPAKP [YDR128W 69-82]
347 | QLQKKNDRPSPLKP [YKL101W 857-870]
19.8 | QPTERDEYKQPFKP [YPR175W 148-161]
147 | QKNYVYGRQDPKKP [YNL137C 407-420]
160 | QLPNPAMPLLHRP [YER169W 386-398]
57.3 | QLDMDMYPYKLKP [YLR375W 257-269]
63.4 | QPPTGILPLAPLRP [YPL085W 911-924]
445 | QMVYIVDPSKRRP [YHR196W 194-206]
316 | QMQIPKYENKPFKP [YBR073W 34-47]
579 | QHNTSSSRRGPGRP [YDR310C 197-210]
74.4 | QIREDQQEVPPQRP [YMR160W 21-34]
40.6 | QYDEIHIPAPSKP [YER172C 459-471]
4.4 | RAAKLAAPENEKP [YOL040C 61-73]
58.1 | QVEPTLDEELPKRP [YDR422C 627-640]
3390 | QSMISTRSTPPARP [YHR073W 189-202]
86.3 | QLATSLYPDIYKP [YFL007W 1286-1298]
627 | QRFNNSNNSIPRKP [YPL032C 537-550]
297 | RDPKTREPLQPRP [YGR084C 80-92]
7910 | QFIKAGVPIGRKP [YGR112W 321-333]
7180 | QSTPQTMRQAPKRP [YNL298W 490-503]
135 | QILLPTNPTLDKP [YNR010W 13-25]
75.2 | QNSERAAQEFPNKP [YGR116W 858-871]
122 | QTATTLSPAKARP [YOR178C 4-16]
4860 | QSTKKAPPPVVKP [YBR108W 772-784]
172 | QVSGTRQSPIPKKP [YML007W 308-321]
160 | QSSTTTAAATPTKP [YHL004W 115-128]

Continued, binder first:

Binder | normalised SPOT signal, Boehringer light units (BLU); mean over the file's lines of this peptide
QTPKVEKTEKPKKP [YLR287C-A 17-30] | 33.2
QLRNELIKQGPKRP [YMR072W 33-46] | 212
QIGSVATSGIPARP [YLR138W 520-533] | 66.6
QGLKLTVPKKIKP [YHR031C 197-209] | 1000
QRALAKDLIVPRRP [YGL099W 127-140] | 42100
RAVSDFVPGFAKP [YDR122W 674-686] | 198
QFRDDSLPPKSKP [YIL091C 357-369] | 196
RDRGVLQEIRPAKP [YMR302C 753-766] | 51
QVNSLTLPIWVRP [YNL169C 143-155] | 215
QISWNGIPKIHRP [YOR070C 275-287] | 1750
QKNVIHRAARPTRP [YLR029C 32-45] | 253
QVILTRVPHDIRP [YDR414C 52-64] | 116
QLTTEVWRKVPMKP [YCR032W 1846-1859] | 897
RAIYTITPETSRP [YIL080W 1034-1046] | 49.8
QPVIVNTPHLKKP [YHR064C 433-445] | 83.3
RATPVSTPVISKP [YHL007C 201-213] | 61.6
QQVPMPILQQPNRP [YNL278W 947-960] | 113
RAQNSYQPMYQRP [YPL042C 7-19] | 696
QNLPRHDADFPPRP [YHR030C 429-442] | 22
RDRLGTLPPDLRP [YPR179C 274-286] | 201
QNDLPTGYYEPMKP [YLL016W 403-416] | 15.1
QQEQNTPPLPPKP [YCL008C 172-184] | 16.1
RDESSILPKNYRP [YDR365C 307-319] | 97.6
QSQLTSIAAVPPKP [YDL030W 480-493] | 92.9
QVHRHEPPVTSRP [YDL036C 175-187] | 133
QFMSAGLPQVAKP [YLR304C 105-117] | 140
RAVYTITPETSRP [YGR109W-B 1008-1020] | 114
QMFLSIQPQEARP [YPL125W 1020-1032] | 310
